The values below come from patent US5665701.

Assay [1] concerns the target FcγRII receptor (CD32) on human platelets (human) (UniProt P12318).
The target is the same in assay [2]. This is another data set of the same source.

In assay [1], CD32 antibody IV.3 (M.Ab.IV.3) displayed an inhibition of M.Ab.F11-induced ^14 C-serotonin release of 1 µg/mL. Also, in assay [2], the concentration that doubled the latency of M.Ab.F11-induced aggregation amounted to 150 ng/mL.
